Assay results published in PMC3343374.
Where “and” joins values, the source holds several entries; their conditions need not be identical. Equal values may be shown once. Read-outs that look alike come from different tables or passages of the source.

Legend:
[1] = target: FAM-labeled, EndoH-digested GluA2S amino-terminal domain; test: AUC
[2] = target: FAM-labeled, EndoH-digested GluA2S amino-terminal domain; test: AUC; remark: listed apart in the source
[3] = target: FAM-labeled, EndoH-digested GluA2S amino-terminal domain; test: AUC; remark: listed apart in the source
[4] = target: GluA2S amino-terminal domain expressed in GnTI- cells and digested with EndoH; test: dynamic light scattering
[5] = target: GluA2S amino-terminal domain expressed in GnTI- cells and digested with EndoH; test: AUC
[6] = target: GluA2S amino-terminal domain expressed in GnTI- cells and digested with EndoH; test: SEC-MALS
[7] = target: GluA2S amino-terminal domain expressed in GnTI- cells and digested with EndoH; test: AUC; remark: listed apart in the source
[8] = target: GluA2S amino-terminal domain expressed in GnTI- cells and digested with EndoH; test: AUC; remark: listed apart in the source
[9] = target: GluA2S amino-terminal domain expressed in GnTI- cells and digested with EndoH; test: AUC; remark: listed apart in the source
[10] = target: GluA2S amino-terminal domain expressed in GnTI- cells and digested with EndoH; test: AUC; remark: listed apart in the source
[11] = target: DyLight405-labeled, EndoH-digested GluA2S amino-terminal domain; test: fluorescence polarisation
[12] = target: DyLight405-labeled, EndoH-digested GluA2S amino-terminal domain; test: fluorescence polarisation; remark: listed apart in the source
[13] = target: GluA2S amino-terminal domain expressed in GnTI- cells and digested with EndoH; test: AUC; remark: listed apart in the source
[14] = target: GluA2S amino-terminal domain expressed in HEK293S GnTI- cells (high mannose glycans); test: SEC-MALS
[15] = target: GluA2S amino-terminal domain expressed in HEK293S GnTI- cells (high mannose glycans); test: AUC
[16] = target: GluA2S amino-terminal domain expressed in HEK293T cells (complex glycosylation); test: dynamic light scattering
[17] = target: GluA2S amino-terminal domain expressed in HEK293T cells (complex glycosylation); test: SEC-MALS
[18] = target: GluA2S amino-terminal domain expressed in HEK293T cells (complex glycosylation); test: AUC
[19] = target: GluA2S amino-terminal domain expressed in HEK293T cells (complex glycosylation); test: AUC; remark: listed apart in the source
[20] = target: GluA3 amino-terminal domain expressed in HEK293T cells (UniProt P19492); test: AUC
[21] = target: GluA3 amino-terminal domain expressed in HEK293T cells (UniProt P19492); test: AUC; remark: listed apart in the source

Chain of GluA2S amino-terminal domain expressed in GnTI- cells and digested with EndoH (P19491 22-883): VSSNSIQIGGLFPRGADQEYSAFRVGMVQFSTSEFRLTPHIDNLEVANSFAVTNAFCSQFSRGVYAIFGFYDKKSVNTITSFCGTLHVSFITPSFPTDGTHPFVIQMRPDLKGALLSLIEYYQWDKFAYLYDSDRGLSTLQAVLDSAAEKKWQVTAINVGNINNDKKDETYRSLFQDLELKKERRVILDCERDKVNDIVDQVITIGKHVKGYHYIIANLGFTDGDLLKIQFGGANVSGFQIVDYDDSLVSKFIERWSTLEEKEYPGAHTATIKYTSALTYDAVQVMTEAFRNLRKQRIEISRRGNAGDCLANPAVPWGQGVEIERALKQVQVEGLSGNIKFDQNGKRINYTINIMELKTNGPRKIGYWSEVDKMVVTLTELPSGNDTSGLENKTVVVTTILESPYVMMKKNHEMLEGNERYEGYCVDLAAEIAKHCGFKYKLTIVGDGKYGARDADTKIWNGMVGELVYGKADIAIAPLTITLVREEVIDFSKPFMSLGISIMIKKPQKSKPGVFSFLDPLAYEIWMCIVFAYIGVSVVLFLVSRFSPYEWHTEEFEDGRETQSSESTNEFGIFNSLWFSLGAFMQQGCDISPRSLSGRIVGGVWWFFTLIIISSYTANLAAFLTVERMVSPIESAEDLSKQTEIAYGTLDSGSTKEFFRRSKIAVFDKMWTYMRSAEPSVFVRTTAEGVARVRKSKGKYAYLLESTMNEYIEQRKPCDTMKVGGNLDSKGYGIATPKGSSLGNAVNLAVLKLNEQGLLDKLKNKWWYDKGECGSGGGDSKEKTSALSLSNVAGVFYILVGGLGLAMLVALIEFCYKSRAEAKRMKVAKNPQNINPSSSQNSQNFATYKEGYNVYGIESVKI
Chain of GluA2S amino-terminal domain expressed in HEK293T cells (complex glycosylation) (P19491 22-883, one chain of several): as the sequence (P19491 22-883) above
Chain of FAM-labeled, EndoH-digested GluA2S amino-terminal domain (P19491 22-883): as above
Chain of GluA2S amino-terminal domain expressed in HEK293S GnTI- cells (high mannose glycans) (P19491 22-883): as above

“FAM-labeled, EndoH-digested GluA2S amino-terminal domain (domain or fragment)” showed a Kd [1] of 14.9 nM, a Kd [2] of 26 nM and a Kd [3] of 5.3 nM.
Work on “GluA2S amino-terminal domain expressed in GnTI- cells and digested with EndoH (domain or fragment)” yielded a stoichiometry N [4] of 2, a Kd [5] of 17 nM and a stoichiometry N [6] of 2. The Kd [7] was over 2.5 mM, the Kd [8] was 30 nM and the Kd [9] was 570 nM. For the same substance, the Kd [10] was 160 nM and 284 nM, the Kd [11] was 10.8 nM and 11.3 nM and 8.43 nM and the Kd [12] was 9.7 nM. For the same substance, the Kd [13] was 5.6 nM and 8.3 nM and 9.7 nM.
“GluA2S amino-terminal domain expressed in HEK293S GnTI- cells (high mannose glycans) (domain or fragment)” was tested, and the stoichiometry N [14] was 2 and the Kd [15] was 11 nM.
“GluA2S amino-terminal domain expressed in HEK293T cells (complex glycosylation) (domain or fragment)” showed a stoichiometry N [16] of 2, a stoichiometry N [17] of 2 and a Kd [18] of 6 nM. The Kd [19] was 8.3 nM.
Work on “GluA3 amino-terminal domain expressed in HEK293T cells (from UniProt P19492 23-888) (domain or fragment)” yielded a Kd [20] of over 162 µM and a Kd [21] of 3.1 µM.
